“Also recorded” adds a separate entry of the source.
B1: ΔPlySs1: truncated PlySs1 lysin, SEQ ID NO:2, N-terminal 254 amino acids: only N-terminal enzymatic and central binding domains (protein, listed as Streptococcus suis)
chain: MTINLETSIRWMSDRVGKVSYSMDYRNGPNSYDCSSAVYYALMAGGAISAGWAVNTEYMHDWLIRNGYVLVAENKPFNAQRHDVCILGKRGYSSGAGGHVVIFVDNVNVIHCNYARNGISIDNYNQVHRGMYYYLYRPANQPSISNKSLDQLVKETLAGVHGNGDTRKASLGSQYEAVMAVINGKASASEKSDEELAREVLAGKHGAGEDRKRSLGPRYEPVQAKVNELLKAKEKPSETAKNEPQTVQFKEDGDL
B2: PlySs2: Streptococcus suis prophage lysin, SEQ ID NO:3; N-terminal CHAP domain and C-terminal SH3-type 5 domain (protein, listed as Streptococcus suis)
chain: MTTVNEALNNVRAQVGSGVSVGNGECYALASWYERMISPDATVGLGAGVGWVSGAIGDTISAKNIGSSYNWQANGWTVSTSGPFKAGQIVTLGATPGNPYGHVVIVEAVDGDRLTILEQNYGGKRYPVRNYYSAASYRQQVVHYITPPGTVAQSAPNLAGSRSYRETGTMTVTVDALNVRRAPNTSGEIVAVYKRGESFDYDTVIIDVNGYVWVSYIGGSGKRNYVATGATKDGKRFGNAWGTFK

Assays:
[1] = tested on: S. agalactiae 090R; assay: ΔPlySs1 OD600 lysis, 1 hr, optimal buffering conditions; type: cell-based, Streptococcus agalactiae
[2] = tested on: S. pyogenes A486; assay: as above; type: cell-based, Streptococcus pyogenes
[3] = tested on: Listeria strains; assay: PlySs2 lytic activity against species and strains (FIG. 25); type: cell-based; settings: 32 μg/ml, 60 minutes
Experimental: (§1) FIG. 25 provides PlySs2 activity against different species and strains. Log-phase cultures were exposed to 32 μg/ml PlySs2 for 60 minutes in phosphate buffer. The final OD600 of the treated samples were divided by the final OD600 of the untreated samples to generate the normalized values above. Multiple Staphylococci (including, but not limited to: MRSA, MSSA, and VISA), Streptococci, Listeria, Enterococci, and Bacilli were tested for susceptibility to PlySs2 activity. Escherichia and Pseudomonas were tested as Gram-negative controls.

[4] = tested on: Pseudomonas; assay: as above; type: cell-based; settings: Gram-negative control
Experimental: as §1

[5] = tested on: S. pyogenes; assay: CFU studies, bactericidal effect; type: cell-based, Streptococcus pyogenes; settings: 128 μg/ml PlySs2, 1 hour
Experimental: Log-phase bacteria were resuspended in buffer A to an OD600 of 0.1 (=0.5 McFarland≈10^8 CFU/ml). PlySs2 was added at 128 μg/ml to polypropylene microtiter plates (Costar) in triplicate for each test organism. Plates were sealed and incubated at 37° C. with shaking every 5 minutes for 1 hour. After 1 hour of incubation, cells were serially diluted in 10-fold increments and plated on BHI. Triplicate controls for each strain were performed with buffer B replacing PlySs2.

[6] = tested on: S. aureus strains; assay: PlySs2 lytic activity against species and strains (FIG. 25); type: cell-based, Staphylococcus aureus; settings: all tested S. aureus strains; 32 μg/ml, 60 minutes
Experimental: as §1

[7] = tested on: MRSA; assay: MRSA mouse sepsis model; type: in vivo, FVB/NJ mice
Experimental: PlySs2 lysin activity against S. aureus has been further evaluated in an MRSA mouse sepsis model. In the MRSA mouse sepsis model, susceptible mice (FVB/NJ mice, weight range 15-20 g) were injected with 500 μL of 5×10^5 (approx LD100) MRSA cells/mL in 5% hog gastric mucin in PBS intraperitoneally (IP). After 3 hours, all of the mice are bacteremic with MRSA in their organs (including spleen, liver, kidney, and heart/blood). To determine PlySs2 activity in this model, 500 μL PlySs2 at 2 mg/mL was injected IP 3 hours after injecting MRSA. […] Control mice were injected with 500 μL PBS. Survival was evaluated over ten days. The control mice die within 18-20 hours.

[8] = tested on: MSSA strain 8325; assay: resistance assay, exposure to incrementally increasing concentrations; type: cell-based, Staphylococcus aureus; settings: MSSA 8325; concentration doubled daily from 1/32 to 4× MIC over 8 days
[9] = tested on: S. pyogenes strain MGAS5005; assay: murine septicemia model, S. pyogenes infection alone; type: in vivo, FVB/NJ mice; settings: PlySs2 2 mg
Experimental: The Rockefeller University's Institutional Animal Care and Use Committee approved all in vivo protocols. A systemic infection model described in Daniel, A. et al., was used to test for the in vivo efficacy of PlySs2 against multiple gram-positive bacteria. Briefly, 4-5 week old female FVB/NJ mice (weight range 15 to 20 g) were obtained from The Jackson Laboratory (Bar Harbor, Me.). After a period of acclimation, mice were injected intraperitoneally (IP) with 0.5 ml of mid log-phase (OD600 0.5) bacteria diluted with 5% hog gastric mucin (Sigma) in saline. Bacterial suspensions contained ˜5×10^5 CFU/ml of MW2, a PVL toxin-encoding MRSA strain, ˜1×10^7 of MGAS5005, an M1 serotype of Streptococcus pyogenes that is virulent in humans and mice (Musser), or a combination of both bacteria simultaneously at the above concentrations for the mix infection experiments. Actual bacterial inoculation titers were calculated by serial dilution and plating to Columbia blood agar plates for each experiment. Mice became bacteremic within one to three hours and contained MRSA and/or S. pyogenes in their organs (including spleen, liver, kidney, and heart/blood) ([50], and unpublished observations). […] The survival rate for each experimental group was monitored every 12 hours for the first 24 hours then every 24 hours up to 10 days post-infection. The data were statistically analyzed by Kaplan Meier Survival curves and a Logrank test performed for 95% confidence intervals using the Prism computer program (GraphPad Software; La Jolla, Calif.).
To determine if the broad lytic activity of PlySs2 could provide in vivo protection from infection with gram-positive pathogens, either alone or as a mixed infection, FVB/NJ mice were intraperitoneally injected with ˜5×10^5 CFU of MRSA strain MW2, ˜1×10^7 of S. pyogenes strain MGAS5005 and/or both bacteria simultaneously at the concentrations above. […] Mice were then monitored for survival over ten days. […]

Row | Molecule | lysis value after 1 hr (treated/untreated OD600 ratio) ([1]; 6.5 μg/ml) | lysis value after 1 hr (treated/untreated OD600 ratio) ([1]; 13 μg/ml) | lysis value after 1 hr (treated/untreated OD600 ratio) ([1]; 30 μg/ml) | lysis value after 1 hr (treated/untreated OD600 ratio) ([1]; 65 μg/ml) | lysis value after 1 hr (treated/untreated OD600 ratio) ([1]; 130 μg/ml) | lysis value after 1 hr (treated/untreated OD600 ratio) ([2]; 6.5 μg/ml) | lysis value after 1 hr (treated/untreated OD600 ratio) ([2]; 13 μg/ml) | lysis value after 1 hr (treated/untreated OD600 ratio) ([2]; 30 μg/ml) | lysis value after 1 hr (treated/untreated OD600 ratio) ([2]; 65 μg/ml) | lysis value after 1 hr (treated/untreated OD600 ratio) ([2]; 130 μg/ml) | strains lysed of strains tested [3] | lytic activity [4] | reduction of colony forming units (CFUs) [5] [logs] | susceptibility to PlySs2 lysis [6] | survival evaluated over ten days ([7]; 500 μL PlySs2 at 2 mg/mL IP 3 hours after MRSA) | mice cleared of bacteremia (survival over 10 days) ([7]; MRSA bacteremia, FIG. 24) [%] | development of resistance [8] | mice died at day three (dead/total) [9] | survival over 10 days ([9]; PlyC 1 mg) [%] | survival over 10 days (mice surviving/total) ([9]; PlyC 1 mg)
1 | B1 | 0.97 | 0.99 | 0.97 | 0.98 | 0.93 | 0.12 | 0.13 | 0.13 | 0.11 | 0.10 | – | – | – | – | – | – | – | – | – | –
2 | B2 | – | – | – | – | – | – | – | – | – | – | 2 of 6 | did not display activity | 3 | highly susceptible | remarkable survival | 95 | Neither S. aureus strain developed resistance; also recorded: None of MRSA strain MW2, MSSA strain 8325, nor S. pyogenes strain 5005 developed resistance | 1/16 | 94 | 15/16
